Tests used:
[1] = target: HIV-1 MGRM-D-001 envelope glycoprotein (Env) on pseudovirus (HIV-1); assay: cell-based or functional assay
[2] = target: HIV-1 JRFL envelope glycoprotein (Env) on pseudovirus (HIV-1); assay: cell-based or functional assay
[3] = target: HIV-1 MGRM-C-026 Env (pseudovirus) (HIV-1); assay: cell-based or functional assay
[4] = target: HIV-1 APV17 Env (pseudovirus) (HIV-1); assay: cell-based or functional assay
[5] = target: JR-FL gp120 ΔV1/ΔV2 (HIV-1 (isolate JR-FL)); assay: ELISA on coated gp120; EC50 by nonlinear regression
[6] = target: WT JR-FL gp120 (HIV-1 (isolate JR-FL)); assay: as above
[7] = target: HIV-1 JR-CSF Env S393A (HIV-1 (isolate JR-CSF)) (UniProt P20871); assay: cell-based or functional assay
[8] = target: HIV-1 JR-CSF Env N302A (HIV-1 JR-CSF) (UniProt P20871); assay: cell-based or functional assay
[9] = target: HIV-1 JR-CSF Env N355A (HIV-1 isolate JR-CSF) (UniProt P20871); assay: cell-based or functional assay
[10] = target: HIV-1 JR-CSF Env N276A (HIV-1 JR-CSF) (UniProt P20871); assay: cell-based or functional assay
[11] = target: HIV-1 JR-CSF Env N396A (HIV-1 (isolate JR-CSF)) (UniProt P20871); assay: cell-based or functional assay
[12] = target: HIV-1 Env of isolate MGRM-A-009 (HIV-1); assay: cell-based or functional assay
[13] = target: HIV-1 JR-CSF Env P299A (HIV-1 JR-CSF) (UniProt P20871); assay: cell-based or functional assay
[14] = target: HIV-1 JR-CSF Env I323A (HIV-1 isolate JR-CSF) (UniProt P20871); assay: cell-based or functional assay
[15] = target: HIV-1 JR-CSF Env R304A (HIV-1 JR-CSF) (UniProt P20871); assay: cell-based or functional assay
[16] = target: HIV-1 93IN905 envelope glycoprotein (Env) (HIV-1); assay: cell-based or functional assay
[17] = target: HIV-1 JR-CSF Env R327A (HIV-1 isolate JR-CSF) (UniProt P20871); assay: cell-based or functional assay
[18] = target: HIV-1 MGRM-F1-013 Env (pseudovirus) (HIV-1); assay: cell-based or functional assay
[19] = target: HIV-1 envelope glycoprotein (Env) of isolate MGRM-C-028, on pseudovirus (HIV-1); assay: cell-based or functional assay
[20] = target: HIV-1 envelope glycoprotein (Env) of isolate MGRM-C-017, on pseudovirus (HIV-1); assay: cell-based or functional assay
[21] = target: HIV-1 MGRM-C-026 Env (on pseudovirus) (HIV-1); assay: cell-based or functional assay
[22] = target: HIV-1 JRFL Env (on pseudovirus) (HIV-1); assay: cell-based or functional assay
[23] = target: HIV-1 envelope glycoprotein (Env) of isolate MGRM-C-019, on pseudovirus (HIV-1); assay: cell-based or functional assay
[24] = target: aMLV envelope protein (on pseudovirus, negative control) (aMLV); assay: cell-based or functional assay
[25] = target: HIV-1 envelope glycoprotein (Env) of isolate MGRM-C-023, on pseudovirus (HIV-1); assay: cell-based or functional assay
[26] = target: HIV-1 envelope glycoprotein (Env) of isolate MGRM-C-026, on pseudovirus (HIV-1); assay: cell-based or functional assay
[27] = target: HIV-1 MGRM-AG-005 Env (on pseudovirus) (HIV-1); assay: cell-based or functional assay
[28] = target: HIV-1 APV13 Env (on pseudovirus) (HIV-1); assay: cell-based or functional assay
[29] = target: HIV-1 APV-13 envelope glycoprotein (Env) on pseudovirus (HIV-1); assay: cell-based or functional assay
[30] = target: HIV-1 APV-17 envelope glycoprotein (Env) on pseudovirus (HIV-1); assay: cell-based or functional assay
[31] = target: HIV-1 Env of isolate MG RM-AG-013 (HIV-1); assay: cell-based or functional assay
[32] = target: HIV-1 Env of isolate MG RM-AG-005 (HIV-1); assay: cell-based or functional assay

Substance 5147_N06 (PGT-130) (antibody) has an IC50 (ug/ml), neutralizing activity [1] of over 10 µg/mL and an IC50 (ug/ml), neutralizing activity [2] of 0.0346 µg/mL.

For 4838_L06 (PGT-121) (antibody), the neutralization IC95 [3] was 0.0687 µg/mL, the neutralization IC80 [4] was 0.371 µg/mL and the neutralization IC90 [4] was 0.799 µg/mL. The neutralization IC95 [4] was 1.55 µg/mL.

Work on PGT-122 (antibody) yielded an EC50 [5] of 0.3 µg/mL, an EC50 [6] of 0.3 µg/mL and a Fold IC50 increase relative to wild-type [7] of 0.5 fold. The Fold IC50 increase relative to wild-type [8] was 1.1 fold, the Fold IC50 increase relative to wild-type [9] was 0.8 fold and the Fold IC50 increase relative to wild-type [10] was 1.4 fold. It also gave a Fold IC50 increase relative to wild-type [11] of 1.1 fold, an IC50 (µg/mL), pseudovirus neutralization [12] of 0.012 µg/mL and a Fold IC50 increase relative to wild-type [13] of 0.5 fold. It also gave a Fold IC50 increase relative to wild-type [14] of 2.2 fold, a Fold IC50 increase relative to wild-type [15] of 0.7 fold and an IC50 neutralization [16] of 0.0138 µg/mL. The Fold IC50 increase relative to wild-type [17] was 1.7 fold.

In the case of 1495_C14 (PGC14) (antibody), the IC50 (µg/ml), pseudovirus neutralization [18] was 6 µg/mL.

PGT-142 (4995_E20) (antibody) was tested, and the IC50, pseudovirus neutralization [19] was 2.12 µg/mL, the IC50, pseudovirus neutralization [20] was 1.11 µg/mL and the IC50 (ug/ml), pseudovirus neutralization [21] was over 10 µg/mL. For the same substance, the IC50 (ug/ml), pseudovirus neutralization [22] was over 10 µg/mL, the IC50, pseudovirus neutralization [23] was 0.003 µg/mL and the IC50 (ug/ml), pseudovirus neutralization [24] was over 10 µg/mL. For the same substance, the IC50, pseudovirus neutralization [25] was 0.087 µg/mL, the IC50, pseudovirus neutralization [26] was over 50 µg/mL and the IC50 (ug/ml), pseudovirus neutralization [27] was 0.22 µg/mL. For the same substance, the IC50 (ug/ml), pseudovirus neutralization [28] was over 10 µg/mL.

1443_C16 (PG16) (TCN-116) (antibody) showed an IC90 (pseudovirus neutralization) [29] of over 50 µg/mL and an IC90 (pseudovirus neutralization) [30] of over 50 µg/mL.

5141_B17 (PGT-126) (antibody) showed an IC50 [3] of 0.0076 µg/mL, an IC80 [3] of 0.0345 µg/mL and an IC90 [3] of 0.0831 µg/mL. It also gave an IC95 [3] of 0.185 µg/mL, an IC50 [4] of 0.501 µg/mL and an IC80 [4] of 4.43 µg/mL. The IC90 [4] was over 10 µg/mL, the IC95 [4] was over 10 µg/mL and the neutralization IC50 [31] was 0.008 µg/mL. The neutralization IC50 [32] was 1.21 µg/mL, the IC50 (ug/ml), neutralizing activity [1] was 0.0639 µg/mL and the IC50 (ug/ml), neutralizing activity [2] was 0.014 µg/mL.

PGT-141 (4964_G22; 4993_K13) (antibody) showed an IC50, pseudovirus neutralization [19] of 13.8 µg/mL, an IC50, pseudovirus neutralization [20] of 4.02 µg/mL and an IC50 (ug/ml), pseudovirus neutralization [21] of over 10 µg/mL. It also gave an IC50 (ug/ml), pseudovirus neutralization [22] of over 10 µg/mL, an IC50, pseudovirus neutralization [23] of 0.008 µg/mL and an IC50 (ug/ml), pseudovirus neutralization [24] of over 10 µg/mL. The IC50, pseudovirus neutralization [25] was 0.153 µg/mL, the IC50, pseudovirus neutralization [26] was over 50 µg/mL and the IC50 (ug/ml), pseudovirus neutralization [27] was 0.392 µg/mL. It also gave an IC50 (ug/ml), pseudovirus neutralization [28] of over 10 µg/mL.

4877_D15 (PGT-122) (antibody) gave a neutralization IC50 [31] of 0.521 µg/mL, a neutralization IC50 [32] of 33.9 µg/mL and an IC50 (ug/ml), neutralizing activity [1] of 0.867 µg/mL. The IC50 (ug/ml), neutralizing activity [2] was 0.0471 µg/mL.

2G12 (antibody) showed an IC50 (µg/ml), pseudovirus neutralization [18] of over 50 µg/mL.

5123_A06 (PGT-125) (antibody) was tested, and the neutralization IC50 [31] was 0.004 µg/mL, the neutralization IC50 [32] was over 50 µg/mL and the IC50 (ug/ml), neutralizing activity [1] was 2.31 µg/mL. The neutralization IC50 [1] was 2.31 µg/mL, the neutralization IC80 [1] was over 10 µg/mL and the neutralization IC90 [1] was over 10 µg/mL. The neutralization IC95 [1] was over 10 µg/mL, the IC50 (ug/ml), neutralizing activity [2] was 0.0156 µg/mL and the neutralization IC50 [2] was 0.0156 µg/mL. For the same substance, the neutralization IC80 [2] was 0.0462 µg/mL, the neutralization IC90 [2] was 0.0873 µg/mL and the neutralization IC95 [2] was 0.157 µg/mL.

Reference: US20200024330A1
